The target in this assay is 2N5.1 TCR. The assay can be described thus: SPR; Mamu-B*098 loaded with C14nef5.

What is called Kd is the constant that tells how readily two partners part at equilibrium. Lower therefore signals a tighter complex.

B1: β2m-linked Mamu-B*098 protein (single-chain, refolded without C14nef5, biotinylated) (other)
chain: IQRTPKIQVYSRHPPENGKPNFLNCYVSGFHPSDIEVDLLKNGEKMGKVEHSDLSFSKDWSFYLLYYTEFTPNEKDEYACRVNHVTLSGPRTVKWDRDMGGGGSGGSGSGGGSSGSHSMRYFSTTVSRPGRGEPRFIVVGYVDDTQFVRFDSDAASPKMEPRAPWMEQEGPEYWEEQTRRVKDAAQTFRVSLGNLRGYYNQSEAGSHTLQTMSGCDLGPDGRLLRGYYQQAYDGRDYIALNEDLRSWTAADEAAQNTQRKWEAAGVAEQWRAYLEGECLESLRRYLENGKETLQRAEPPKTHVTHHPVSDHEATLRCWALGFYPAEITLTWQRDGEDQTQDTELVETRPGGDGTFQKWGAVVVPSGEEQRYTCHVQHEGLPEPLTLRWEPLHHILDAQKMVWNHR
modifications: biotin (BirA) on the biotinylation sequence peptide
With B1, the Kd was 2500 nM.

Values taken from paper PMC4735555 (2016).
